Laboratory results reported in article PMC3649970, “A Unique Spumavirus Gag N-terminal Domain with Functional Properties of Orthoretroviral Matrix and Capsid” (PLoS Pathogens, 2013).

B1: PFV-Gag-NtD (amino terminal domain of Prototypic Foamy Virus Gag, residues 1-179) [Prototypic foamy virus (PFV)] / PFV Env leader peptide residues 1-20 [Prototypic foamy virus (PFV)] (parent)
chain 1: MASGSNVEEYELDVEALVVILRDRNIPRNPLHGEVIGLRLTEGWWGQIERFQMVRLILQDDDNEPLQRPRYEVIQRAVNPHTMFMISGPLAELQLAFQDLDLPEGPLRFGPLANGHYVQGDPYSSSYRPVTMAETAQMTRDELEDVLNTQSEIEIQMINLLELYEVETRALRRQLAERS
chain 2: MAPPMTLQQWIIWKKMNKAH

Variants of: B1
Assay: sedimentation velocity analytical ultracentrifugation
Conditions: with PFV Env leader peptide residues 1-20 [Prototypic foamy virus (PFV)]; 75 µM equimolar mixtures of Gag-NtDs with Env(1-20); read off a plot

Q: With chain 1 V14S as the variant, how does the Ka read?
A: 0.51 10^5 M^-1

Q: For chain 1 V14S L21S, which Ka is on record?
A: 0.07 10^5 M^-1

Q: With chain 1 L17S as the variant, how does the Ka read?
A: 0.71 10^5 M^-1

Q: For chain 1 V18S L21S, which Ka is on record?
A: 0.16 10^5 M^-1

Q: How did the Ka turn out when chain 1 V18S was run?
A: 0.6 10^5 M^-1

Q: With chain 1 L21S as the variant, how does the Ka read?
A: 0.29 10^5 M^-1

Q: How did the Ka turn out when chain 1 L21N was run?
A: 0.3 10^5 M^-1

Q: Which Ka does the source give for chain 1 V14S V18S here?
A: 0.18 10^5 M^-1

Q: For chain 1 N29Q, which Ka is on record?
A: 1.4 10^5 M^-1
